Sequences and labels used below:
T1: purified human glycophorin A protein (Sigma, cat # G5017) (human, UniProt P02724 20-150)
T1 construct: mature; also called Sigma hGPA; Sigma GPA
T1 sequence (looked up): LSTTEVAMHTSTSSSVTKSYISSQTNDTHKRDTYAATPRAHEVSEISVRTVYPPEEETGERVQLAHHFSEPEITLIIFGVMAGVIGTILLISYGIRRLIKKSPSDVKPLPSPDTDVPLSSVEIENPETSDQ

T2: human glycophorin A in the red blood cell membrane (human, UniProt P02724 20-150)
T2 construct: whole, on cells; used for intact RBC, isolated RBC membranes and transfected cells; the assay field tells which; also called GPA; hGPA
T2 sequence (looked up): T1 sequence (looked up)

T3: Rhesus monkey glycophorin A on Rhesus monkey red blood cells (Rhesus monkey, UniProt A0A1D5Q349 20-150)
T3 construct: whole, on cells; also called Rhesus RBC; monkey GPA
T3 sequence: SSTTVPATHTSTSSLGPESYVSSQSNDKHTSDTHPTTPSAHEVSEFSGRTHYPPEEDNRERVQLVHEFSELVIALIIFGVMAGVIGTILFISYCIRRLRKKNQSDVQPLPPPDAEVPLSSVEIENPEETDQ

T4: glycophorin A peptide GP5 (human, biotin at the N-terminus)
T4 construct: Residues 42 to 61 of the human glycophorin A extracellular domain
T4 peptide: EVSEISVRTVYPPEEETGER

B1: Hu6C12-12 (antibody, V domains shown)
VH: EVQLVQSGAEVKKPGASVKVSCKASGYTFTTYTIHWVRQAPGQGLEWMGYINPSSDYTRYNPKFKDRVTMTTDTSTSTAYMELRSLRSDDTAVYYCQTGTRDYWGQGTTVTVSS
VL: DIQLTQSPSFLSASVGDRVTITCSAASSVSYIYWYQQKPGKAPKLLIYSTSTLPSGVPSRFSGSGSGTEYTLTISSLQPEDFATYYCHQRNSFPFTFGQGTKLEIK
notes: IgG format; VH.1c + Vk.1a
B2: Hu6C12-15 (antibody, V domains shown)
VH: B1 VH with M70L
VL: B1 VL
notes: IgG format; VH.1f + Vk.1a
B3: Hu6C12-2 (antibody, V domains shown)
VH: B1 VH with Q97A
VL: B1 VL with Y70F
notes: IgG format; VH.1b + Vk.1
B4: Hu6C12-6 (antibody, V domains shown)
VH: B1 VH with M70L
VL: B1 VL with Y70F
notes: IgG format; VH.1f + Vk.1
B5: Hu6C12-3 (antibody, V domains shown)
VH: B1 VH
VL: B1 VL with Y70F
notes: IgG format; VH.1c + Vk.1
B6: Hu6C12-5 (antibody, V domains shown)
VH: B1 VH with M70L, Q97A
VL: B1 VL with Y70F
notes: IgG format; VH.1e + Vk.1
B7: Hu6C12-11 (antibody, V domains shown)
VH: B1 VH with Q97A
VL: B1 VL
notes: IgG format; VH.1b + Vk.1a
B8: Hu6C12-14 (antibody, V domains shown)
VH: B1 VH with M70L, Q97A
VL: B1 VL
notes: IgG format; VH.1e + Vk.1a
B9: Hu6C12-21 (antibody, V domains shown)
VH: B1 VH with M70L, T98R
VL: B1 VL with Y35F
notes: IgG format; VH.1d + Vk.1b
B10: TPP-8744 FVIII-scFv fusion protein (other)
chain: ATRRYYLGAVELSWDYMQSDLGELPVDARFPPRVPKSFPFNTSVVYKKTLFVEFTDHLFNIAKPRPPWMGLLGPTIQAEVYDTVVITLKNMASHPVSLHAVGVSYWKASEGAEYDDQTSQREKEDDKVFPGGSHTYVWQVLKENGPMASDPLCLTYSYLSHVDLVKDLNSGLIGALLVCREGSLAKEKTQTLHKFILLFAVFDEGKSWHSETKNSLMQDRDAASARAWPKMHTVNGYVNRSLPGLIGCHRKSVYWHVIGMGTTPEVHSIFLEGHTFLVRNHRQASLEISPITFLTAQTLLMDLGQFLLFCHISSHQHDGMEAYVKVDSCPEEPQLRMKNNEEAEDYDDDLTDSEMDVVRFDDDNSPSFIQIRSVAKKHPKTWVHYIAAEEEDWDYAPLVLAPDDRSYKSQYLNNGPQRIGRKYKKVRFMAYTDETFKTREAIQHESGILGPLLYGEVGDTLLIIFKNQASRPYNIYPHGITDVRPLYSRRLPKGVKHLKDFPILPGEIFKYKWTVTVEDGPTKSDPRCLTRYYSSFVNMERDLASGLIGPLLICYKESVDQRGNQIMSDKRNVILFSVFDENRSWYLTENIQRFLPNPAGVQLEDPEFQASNIMHSINGYVFDSLQLSVCLHEVAYWYILSIGAQTDFLSVFFSGYTFKHKMVYEDTLTLFPFSGETVFMSMENPGLWILGCHNSDFRNRGMTALLKVSSCDKNTGDYYEDSYEDISAYLLSKNNAIEPRSFSQNGGGGSTGGTGGSSGGGTGSGGGGTGGSGGTDIQLTQSPSFLSASVGDRVTITCRASSSVSYIYWFQQKPGKAPKLLIYATSTLQSGVPSRFSGSGSGTEYTLTISSLQPEDFATYYCHQRNSFPYTFGQGTKLEIKGGGGSGGGGSGGGGSGGGGSEVQLVQSGAEVKKPGASVKVSCKASGYTFTRYTIHWVRQAPGQGLEWMGYINPSSGYTRYNPKFKGRVTMTRDKSTSTAYMELRSLRSDDTAVYYCWTGTRDYWGQGTTVTVSSGGGGSQNPPVLKRHQREITDENQSPRSFQKKTRHYFIAAVERLWDYGMSSSPHVLRNRAQSGSVPQFKKVVFQEFTDGSFTQPLYRGELNEHLGLLGPYIRAEVEDNIMVTFRNQASRPYSFYSSLISYEEDQRQGAEPRKNFVKPNETKTYFWKVQHHMAPTKDEFDCKAWAYFSDVDLEKDVHSGLIGPLLVCHTNTLNPAHGRQVTVQEFALFFTIFDETKSWYFTENMERNCRAPCNIQMEDPTFKENYRFHAINGYIMDTLPGLVMAQDQRIRWYLLSMGSNENIHSIHFSGHVFTVRKKEEYKMALYNLYPGVFETVEMLPSKAGIWRVECLIGEHLHAGMSTLFLVYSNKCQTPLGMASGHIRDFQITASGQYGQWAPKLARLHYSGSINAWSTKEPFSWIKVDLLAPMIIHGIKTQGARQKFSSLYISQFIIMYSLDGKKWQTYRGNSTGTLMVFFGNVDSSGIKHNIFNPPIIARYIRLHPTHYSIRSTLRMELMGCDLNSCSMPLGMESKAISDAQITASSYFTNMFATWSPSKARLHLQGRSNAWRPQVNNPKEWLQVDFQKTMKVTGVTTQGVKSLLTSMYVKEFLISSSQDGHQWTLFFQNGKVKVFQGNQDSFTPVVNSLDPPLLTRYLRIHPQSWVHQIALRMEVLGCEAQDLY
notes: The entry is the mature protein; mostly a 2 chain molecule

Where a chain is given by its changes, count along the chain named.

By EC50 is commonly meant the concentration at which the effect is half-maximal. Usually Kd stands for a measure of binding affinity in units of concentration. One may read the koff as a measure of how fast the partners let go of each other. The term kon denotes the second-order rate constant of association.

One assay concerns the target T1, purified human glycophorin A protein …. Description: ELISA, IgG. On the technique in general: An ELISA detects its analyte on a solid surface through an enzyme-linked reagent.
Take B1: a half-maximal response (EC50) required 10.4 nM.

For the molecule B2, a half-maximal effect (EC50) was put at 9.69 nM.

The molecule B3 yielded an EC50 of 8.65 nM.

B4 yielded an EC50 of 3.46 nM.

B5 displayed an EC50 of 2.17 nM.

For the molecule B6, the EC50 was 8.45 nM.

Another assay concerns the target T5, Cynomolgus monkey glycophorin A on Cynomolgus monkey red blood cells (Cynomolgus monkey).
T5 construct: whole, on cells; also called Cyno RBC; Cyno GPA
The experiment in a line: FACS, RBC Cy01. Background: In flow cytometry, cells or beads pass a laser one at a time.
Procedure: (§1) The binding of the humanized variants to intact red blood cells (RBC) from humans (Hu01 to 03; 3 individuals), Rhesus monkey (Rh01 to 03; 3 individuals) and Cynomolgus monkey (Cy01 to 02; 2 individuals) was measured by fluorescence activated cell sorting (FACS).
B1 gave a fluorescence intensity of 959.

The molecule B2 showed a fluorescence intensity of 1010.

As for B7, the fluorescence intensity is 960.

B3 showed a fluorescence intensity of 962.

B8: the fluorescence intensity came to 978.

B4: the fluorescence intensity was 1060.

With B5, the fluorescence intensity is 1120.

The molecule B9 displayed a fluorescence intensity of 908.

Take B6: the fluorescence intensity worked out at 1070.

The target in a further assay is T5, Cynomolgus monkey glycophorin A on …. Description: FACS, RBC Cy02.
Procedure: as §1
The molecule B1 showed a fluorescence intensity of 1030.

Molecule B2 yielded a fluorescence intensity of 1070.

The molecule B7 returned a fluorescence intensity of 1020.

B3: the fluorescence intensity was found to be 1030.

Consider B8, for which the fluorescence intensity came out at 1080.

Molecule B4 showed a fluorescence intensity of 1100.

As for B5, the fluorescence intensity worked out at 1200.

With B9, the fluorescence intensity came to 1120.

The molecule B6 registered a fluorescence intensity of 1140.

In the next assay the target is T2, human glycophorin A in the red blood …. The experiment in a line: FACS, RBC Hu01.
Procedure: as §1
B1 gave a fluorescence intensity of 646.

For the molecule B2, the fluorescence intensity turned out to be 590.

The molecule B7 displayed a fluorescence intensity of 548.

B3 yielded a fluorescence intensity of 897.

In turn, B8 displayed a fluorescence intensity of 514.

B4 gave a fluorescence intensity of 909.

The molecule B5 displayed a fluorescence intensity of 1070.

Molecule B6 gave a fluorescence intensity of 921.

For a further assay the target is unchanged. The experiment in a line: FACS, RBC Hu02.
Procedure: as §1
Molecule B1 yielded a fluorescence intensity of 393.

The molecule B2 yielded a fluorescence intensity of 375.

Molecule B7 gave a fluorescence intensity of 315.

Regarding B3, the fluorescence intensity stood at 603.

B8: the fluorescence intensity worked out at 298.

B4 displayed a fluorescence intensity of 634.

As for B5, the fluorescence intensity is 739.

Molecule B6 showed a fluorescence intensity of 625.

The target is the same in another assay. The experiment in a line: FACS, RBC Hu03.
Procedure: as §1
B1 gave a fluorescence intensity of 484.

Consider B2, for which the fluorescence intensity is 482.

B7: the fluorescence intensity amounted to 387.

B3 registered a fluorescence intensity of 716.

Take B8: the fluorescence intensity was found to be 384.

The molecule B4 came in with a fluorescence intensity of 786.

As for B5, the fluorescence intensity is 862.

B6 displayed a fluorescence intensity of 758.

In another assay the target is T3, Rhesus monkey glycophorin A on Rhesus …. The experiment in a line: FACS, RBC Rh01.
Procedure: as §1
On to B1, for which the fluorescence intensity amounted to 1480.

B2 came in with a fluorescence intensity of 1520.

In the case of B7, the fluorescence intensity is 1530.

B3 showed a fluorescence intensity of 1530.

As to B8, the fluorescence intensity is 1480.

Regarding B4, the fluorescence intensity was determined as 1640.

The molecule B5 had a fluorescence intensity of 1730.

For B9, the fluorescence intensity came to 1470.

In turn, B6 returned a fluorescence intensity of 1660.

The target is the same in the next assay. Description: FACS, RBC Rh02.
In the case of B1, the fluorescence intensity was found to be 1400.

As for B2, the fluorescence intensity came out at 1480.

For B7, the fluorescence intensity is 1440.

On to B3, for which the fluorescence intensity stood at 1400.

For the molecule B8, the fluorescence intensity was 1480.

As for B4, the fluorescence intensity stood at 1520.

B5 returned a fluorescence intensity of 1600.

Turning to B9, the fluorescence intensity worked out at 1330.

In turn, B6 registered a fluorescence intensity of 1550.

The next assay shares this target. The experiment in a line: FACS, RBC Rh03.
Procedure: as §1
Consider B1, for which the fluorescence intensity is 1410.

Consider B2, for which the fluorescence intensity came to 1490.

As to B7, the fluorescence intensity stood at 1420.

In turn, B3 gave a fluorescence intensity of 1380.

In turn, B8 gave a fluorescence intensity of 1480.

The molecule B4 registered a fluorescence intensity of 1540.

Turning to B5, the fluorescence intensity is 1600.

Regarding B9, the fluorescence intensity was 1340.

Molecule B6 gave a fluorescence intensity of 1560.

A further assay deals with T4, glycophorin A peptide GP5. The experiment in a line: Octet, GP5 peptide on the probe, fusion protein in solution, 1:1 fit.
In the case of B10, the Kd was 7.35 nM, the koff worked out at 0.0048 s⁻¹ and the association rate constant (kon) came to 652000 M⁻¹ s⁻¹.

Source of the values: patent US20190359687A1 (Bayer, published 2019).
